T1: human EphB6 (Homo sapiens, UniProt O15197)
T1 construct: a protein of the extracellular region of each human Eph receptor fused with the SEAP protein and the His tag; made in house; host or cells: Expi293F cells
T1 sequence (O15197 32-594 limits assumed): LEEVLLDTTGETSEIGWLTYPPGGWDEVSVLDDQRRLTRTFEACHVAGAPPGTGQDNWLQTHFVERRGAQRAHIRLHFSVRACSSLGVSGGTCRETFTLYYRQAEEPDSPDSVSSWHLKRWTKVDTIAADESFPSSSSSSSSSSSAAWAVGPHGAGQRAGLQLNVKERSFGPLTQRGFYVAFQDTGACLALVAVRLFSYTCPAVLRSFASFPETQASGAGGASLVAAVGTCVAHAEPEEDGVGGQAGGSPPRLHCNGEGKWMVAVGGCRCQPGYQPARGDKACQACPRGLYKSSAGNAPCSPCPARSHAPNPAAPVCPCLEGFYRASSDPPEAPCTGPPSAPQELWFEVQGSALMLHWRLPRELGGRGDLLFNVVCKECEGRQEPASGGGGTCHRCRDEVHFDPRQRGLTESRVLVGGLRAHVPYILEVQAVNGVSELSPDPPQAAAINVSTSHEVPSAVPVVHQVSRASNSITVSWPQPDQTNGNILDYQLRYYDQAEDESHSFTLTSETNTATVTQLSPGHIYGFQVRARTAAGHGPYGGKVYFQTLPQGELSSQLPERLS

T2: human EphB3 (Homo sapiens, UniProt P54753)
T2 construct: a protein of the extracellular region of each human Eph receptor fused with the SEAP protein and the His tag; made in house; host or cells: Expi293F cells
T2 sequence (P54753 34-559 limits assumed): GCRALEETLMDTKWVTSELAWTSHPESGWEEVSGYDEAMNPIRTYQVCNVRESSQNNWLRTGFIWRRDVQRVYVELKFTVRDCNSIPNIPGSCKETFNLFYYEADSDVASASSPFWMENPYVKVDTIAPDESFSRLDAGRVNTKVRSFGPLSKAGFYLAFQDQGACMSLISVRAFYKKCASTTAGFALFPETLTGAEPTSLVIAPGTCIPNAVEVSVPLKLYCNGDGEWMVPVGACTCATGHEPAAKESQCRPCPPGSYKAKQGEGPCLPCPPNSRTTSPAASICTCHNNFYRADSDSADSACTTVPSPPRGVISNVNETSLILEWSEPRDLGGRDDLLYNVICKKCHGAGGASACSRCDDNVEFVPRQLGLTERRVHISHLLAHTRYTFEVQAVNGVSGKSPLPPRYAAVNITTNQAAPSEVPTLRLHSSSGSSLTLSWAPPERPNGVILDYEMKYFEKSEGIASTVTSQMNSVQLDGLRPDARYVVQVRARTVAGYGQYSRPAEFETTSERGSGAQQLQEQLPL

T3: human EphA10 (Homo sapiens, UniProt Q5JZY3)
T3 construct: a protein of the extracellular region of each human Eph receptor fused with the SEAP protein and the His tag; made in house; host or cells: Expi293F cells (culture supernatant)
T3 sequence (Q5JZY3 34-565 limits assumed): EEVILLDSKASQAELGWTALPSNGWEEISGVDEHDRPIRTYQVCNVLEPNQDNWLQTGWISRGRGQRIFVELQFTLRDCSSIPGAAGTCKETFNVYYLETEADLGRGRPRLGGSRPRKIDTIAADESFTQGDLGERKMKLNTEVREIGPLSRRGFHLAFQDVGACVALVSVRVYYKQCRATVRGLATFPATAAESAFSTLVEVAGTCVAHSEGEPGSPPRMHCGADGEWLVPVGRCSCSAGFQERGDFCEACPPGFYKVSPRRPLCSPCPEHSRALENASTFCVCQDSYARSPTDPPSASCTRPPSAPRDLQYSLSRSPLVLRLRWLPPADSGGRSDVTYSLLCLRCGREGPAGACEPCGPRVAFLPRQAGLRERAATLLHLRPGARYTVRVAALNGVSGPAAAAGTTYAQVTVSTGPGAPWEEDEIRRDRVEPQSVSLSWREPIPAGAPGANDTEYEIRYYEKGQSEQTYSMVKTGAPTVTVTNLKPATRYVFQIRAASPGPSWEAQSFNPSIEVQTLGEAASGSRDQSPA


Assays:
Test in all cases: Selectivity ELISA of humanized antibodies for human Eph receptor
Format in all cases: binding
Conditions in all cases: coated protein 1 nM
[1] = target: T1, human EphB6
Outline: (§1)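 Steps: coat anti-His antibody; block, then 1% BlockAce overnight at 4 °C; add Eph receptor extracellular region-SEAP-His (1 nM final) 1 h; add humanized antibody 1 h; add HRP anti-IgG 1 h; develop TMB; stop with acid; read 450 nm.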

[2] = target: T2, human EphB3
Outline: as §1

[3] = target: T4, human EphA5 (Homo sapiens, UniProt P54756)
T4 construct: a protein of the extracellular region of each human Eph receptor fused with the SEAP protein and the His tag; made in house; host or cells: Expi293F cells (culture supernatant)
T4 sequence (P54756 25-573 limits assumed): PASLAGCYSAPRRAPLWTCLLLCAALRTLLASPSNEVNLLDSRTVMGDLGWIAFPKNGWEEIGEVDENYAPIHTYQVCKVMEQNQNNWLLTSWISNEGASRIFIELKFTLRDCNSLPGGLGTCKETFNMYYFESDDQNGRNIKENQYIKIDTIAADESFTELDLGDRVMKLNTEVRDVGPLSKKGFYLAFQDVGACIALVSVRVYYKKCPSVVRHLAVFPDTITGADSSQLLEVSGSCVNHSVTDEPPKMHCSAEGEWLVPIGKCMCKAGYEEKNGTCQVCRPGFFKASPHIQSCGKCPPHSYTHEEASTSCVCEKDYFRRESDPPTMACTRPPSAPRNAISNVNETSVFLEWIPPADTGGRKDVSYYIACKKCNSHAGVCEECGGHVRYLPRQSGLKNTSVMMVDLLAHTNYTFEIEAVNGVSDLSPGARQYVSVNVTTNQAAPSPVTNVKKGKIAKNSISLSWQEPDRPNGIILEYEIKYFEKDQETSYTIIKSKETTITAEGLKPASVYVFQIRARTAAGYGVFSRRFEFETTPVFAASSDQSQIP
Outline: as §1

[4] = target: T3, human EphA10
Outline: as §1

| Molecule | hEphB6-SEAP-: absorbance at 450 nm, percentage with respect to hEphA4-SEAP-His as 100% [1] [%] | hEphB3-SEAP-: absorbance at 450 nm, percentage with respect to hEphA4-SEAP-His as 100% [2] [%] | hEphA5-SEAP-: absorbance at 450 nm, percentage with respect to hEphA4-SEAP-His as 100% [3] [%] | hEphA10-SEAP-: absorbance at 450 nm, percentage with respect to hEphA4-SEAP-His as 100% [4] [%] |
| --- | --- | --- | --- | --- |
| 156 (antibody, V domains shown, synthetic humanized antibody heavy chain variable region sequence; synthetic humanized antibody light chain variable region sequence) VH: QIQLVQSGSELKKPGASVKVSCKASGYTFTDYSMHWVRQAPGQGLKWMGWINTETGEPTYAQGFTGRFVFSLDTSVSTAYLQISSLKAEDTAVYYCARIPLYYYGSRYWYFDVWGQGTTVTVSS VL: DIQMTQSPSSLSASVGDRVTITCRASENIYRNLAWYQQKPGKAPQLLLYAATNLADGVPSRFSGSGSGTDYTLTISSLQPEDFATYYCQHFWGTPWTFGQGTKVEIK | 5.7 | 5.6 | 5.7 | 5.3 |
| 136 (antibody, V domains shown, synthetic humanized antibody heavy chain variable region sequence; synthetic humanized antibody light chain variable region sequence) VH: QVQLVQSGSELKKPGASVKVSCKASGYTFTDYSMHWVRQAPGQGLKWMGWINTETGEPTYADDFKGRFVFSLDTSVSTAYLQISSLKAEDTAVYYCARIPLYYYGSRYWYFDVWGQGTTVTVSS VL: EIVMTQSPATLSVSPGERATLSCRASENIYRNLAWYQQKPGQSPRLLIYAATNLADGIPARFSGSGSGTEYTLTISSLQSEDFAVYYCQHFWGTPWTFGQGTKVEIK | 5.5 | 5.5 | 5.2 | 5.2 |
